Reference: publication PMC1636418

How the values were obtained:
Experiment in all cases: EMSA
ZαβADAR1 = target: T1, ZαβADAR1 (Homo sapiens, UniProt P55265 133-368)
T1 sequence: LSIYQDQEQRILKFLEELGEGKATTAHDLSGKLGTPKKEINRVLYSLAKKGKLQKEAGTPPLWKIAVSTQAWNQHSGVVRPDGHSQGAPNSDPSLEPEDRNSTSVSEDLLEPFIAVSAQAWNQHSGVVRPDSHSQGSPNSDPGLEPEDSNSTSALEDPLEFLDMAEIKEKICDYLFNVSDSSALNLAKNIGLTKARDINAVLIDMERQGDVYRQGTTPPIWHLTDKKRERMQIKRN

[1] = target: T2, ZαβZBP1 N46D/Y50A/N141D/Y145A (Homo sapiens, UniProt Q9H171 4-167, N46D;Y50A;N141D;Y145A)
T2 sequence: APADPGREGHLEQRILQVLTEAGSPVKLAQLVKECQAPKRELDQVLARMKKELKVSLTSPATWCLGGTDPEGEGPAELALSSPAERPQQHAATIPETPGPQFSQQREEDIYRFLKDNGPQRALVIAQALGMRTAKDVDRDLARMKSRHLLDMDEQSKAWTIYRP

ZαβZBP1 Y50A = target: T3, ZαβZBP1 Y50A (Homo sapiens, UniProt Q9H171 4-167, Y50A)
T3 sequence: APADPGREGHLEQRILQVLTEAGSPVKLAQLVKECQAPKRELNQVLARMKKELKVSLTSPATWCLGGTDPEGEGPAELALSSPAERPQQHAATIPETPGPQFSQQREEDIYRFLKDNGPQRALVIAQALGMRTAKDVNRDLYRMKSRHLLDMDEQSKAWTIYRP

ZαβZBP1 N46D/Y50A = target: T4, ZαβZBP1 N46D/Y50A (Homo sapiens, UniProt Q9H171 4-167, N46D;Y50A)
T4 sequence: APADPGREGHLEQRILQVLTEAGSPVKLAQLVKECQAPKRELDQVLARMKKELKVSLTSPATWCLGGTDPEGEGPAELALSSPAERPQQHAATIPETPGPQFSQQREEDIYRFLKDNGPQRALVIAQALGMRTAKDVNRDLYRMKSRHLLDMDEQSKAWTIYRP

ZαβZBP1 N141D/Y145A = target: T5, ZαβZBP1 N141D/Y145A (Homo sapiens, UniProt Q9H171 4-167, N141D;Y145A)
T5 sequence: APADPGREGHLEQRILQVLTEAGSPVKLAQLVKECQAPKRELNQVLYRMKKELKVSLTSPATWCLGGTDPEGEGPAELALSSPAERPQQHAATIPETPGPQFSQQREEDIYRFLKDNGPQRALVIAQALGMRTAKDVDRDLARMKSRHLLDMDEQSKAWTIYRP

ZαβZBP1 N46D = target: T6, ZαβZBP1 N46D (Homo sapiens, UniProt Q9H171 4-167, N46D)
T6 sequence: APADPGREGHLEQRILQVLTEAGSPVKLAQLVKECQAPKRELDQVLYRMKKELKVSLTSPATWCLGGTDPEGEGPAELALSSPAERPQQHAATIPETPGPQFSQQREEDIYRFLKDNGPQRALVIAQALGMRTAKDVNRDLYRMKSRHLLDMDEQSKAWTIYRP

ZβZBP1 = target: T7, ZβZBP1 (Homo sapiens, UniProt Q9H171 4-10+87-167, internal_change)
T7 sequence: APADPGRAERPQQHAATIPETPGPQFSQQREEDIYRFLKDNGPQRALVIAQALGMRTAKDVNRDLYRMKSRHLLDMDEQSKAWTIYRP

ZαZBP1 = target: T8, ZαZBP1 (Homo sapiens, UniProt Q9H171 4-86)
T8 sequence: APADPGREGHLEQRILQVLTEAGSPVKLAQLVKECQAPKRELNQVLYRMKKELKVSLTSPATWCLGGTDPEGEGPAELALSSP

ZαβZBP1 = target: T9, ZαβZBP1 (Homo sapiens, UniProt Q9H171 4-167)
T9 sequence: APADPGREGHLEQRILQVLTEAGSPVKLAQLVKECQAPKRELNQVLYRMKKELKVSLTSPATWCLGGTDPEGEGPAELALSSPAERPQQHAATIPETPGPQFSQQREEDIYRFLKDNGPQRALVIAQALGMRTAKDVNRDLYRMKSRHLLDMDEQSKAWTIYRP

B1: (dC-dG)20 (dsDNA)
DNA 1: CGCGCGCGCGCGCGCGCGCGCGCGCGCGCGCGCGCGCGCG
DNA 2: CGCGCGCGCGCGCGCGCGCGCGCGCGCGCGCGCGCGCGCG
Does B1 bind (ZαβADAR1)?
Result: binds

Does B1 bind [1]?
Result: no binding

Does B1 bind (ZαβZBP1 Y50A)?
Result: no binding

Does B1 bind (ZαβZBP1 N46D/Y50A)?
Result: no binding

Does B1 bind (ZαβZBP1 N141D/Y145A)?
Result: no binding

Does B1 bind (ZαβZBP1 N46D)?
Result: no binding

Does B1 bind (ZβZBP1)?
Result: binds

Does B1 bind (ZαZBP1)?
Result: binds

Does B1 bind (ZαβZBP1)?
Result: binds
